The results in this text go back to patent publication US20240294650A1 (Alector, published 2024).

For test [1], the target named is T1, Full Axl (ECD domain of human Axl) (human, UniProt P30530 26-451).
T1 construct: also called human Axl ECD
T1 sequence: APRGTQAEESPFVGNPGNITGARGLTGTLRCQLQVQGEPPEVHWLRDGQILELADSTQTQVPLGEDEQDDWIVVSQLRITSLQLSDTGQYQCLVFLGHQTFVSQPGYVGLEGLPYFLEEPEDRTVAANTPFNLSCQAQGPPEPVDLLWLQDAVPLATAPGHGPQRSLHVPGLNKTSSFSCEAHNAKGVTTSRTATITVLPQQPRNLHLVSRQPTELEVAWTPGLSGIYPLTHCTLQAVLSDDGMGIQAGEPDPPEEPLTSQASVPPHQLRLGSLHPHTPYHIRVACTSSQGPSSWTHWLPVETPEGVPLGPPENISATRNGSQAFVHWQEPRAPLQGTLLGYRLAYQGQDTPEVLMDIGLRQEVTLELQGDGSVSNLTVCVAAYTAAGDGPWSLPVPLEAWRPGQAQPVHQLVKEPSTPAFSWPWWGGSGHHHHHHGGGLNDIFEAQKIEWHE
Put plainly: SPR (data not shown). In a few lines: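 SPR, Carterra LSA: anti-MerTK Ab amine-coupled (duplicate, HC30M chip); construct supernatant diluted 1:1 in HBS-TE + 0.5 mg/mL BSA, injected; regen 10 mM glycine pH2.0 after each injection. Read-out = binding pattern per construct.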

The target in test [2] is T2, mouse MerTK overexpressed on CHO cells (mouse, UniProt Q60805 19-994).
T2 construct: whole, on cells; also called CHO-muMerTK OE
T2 sequence (looked up): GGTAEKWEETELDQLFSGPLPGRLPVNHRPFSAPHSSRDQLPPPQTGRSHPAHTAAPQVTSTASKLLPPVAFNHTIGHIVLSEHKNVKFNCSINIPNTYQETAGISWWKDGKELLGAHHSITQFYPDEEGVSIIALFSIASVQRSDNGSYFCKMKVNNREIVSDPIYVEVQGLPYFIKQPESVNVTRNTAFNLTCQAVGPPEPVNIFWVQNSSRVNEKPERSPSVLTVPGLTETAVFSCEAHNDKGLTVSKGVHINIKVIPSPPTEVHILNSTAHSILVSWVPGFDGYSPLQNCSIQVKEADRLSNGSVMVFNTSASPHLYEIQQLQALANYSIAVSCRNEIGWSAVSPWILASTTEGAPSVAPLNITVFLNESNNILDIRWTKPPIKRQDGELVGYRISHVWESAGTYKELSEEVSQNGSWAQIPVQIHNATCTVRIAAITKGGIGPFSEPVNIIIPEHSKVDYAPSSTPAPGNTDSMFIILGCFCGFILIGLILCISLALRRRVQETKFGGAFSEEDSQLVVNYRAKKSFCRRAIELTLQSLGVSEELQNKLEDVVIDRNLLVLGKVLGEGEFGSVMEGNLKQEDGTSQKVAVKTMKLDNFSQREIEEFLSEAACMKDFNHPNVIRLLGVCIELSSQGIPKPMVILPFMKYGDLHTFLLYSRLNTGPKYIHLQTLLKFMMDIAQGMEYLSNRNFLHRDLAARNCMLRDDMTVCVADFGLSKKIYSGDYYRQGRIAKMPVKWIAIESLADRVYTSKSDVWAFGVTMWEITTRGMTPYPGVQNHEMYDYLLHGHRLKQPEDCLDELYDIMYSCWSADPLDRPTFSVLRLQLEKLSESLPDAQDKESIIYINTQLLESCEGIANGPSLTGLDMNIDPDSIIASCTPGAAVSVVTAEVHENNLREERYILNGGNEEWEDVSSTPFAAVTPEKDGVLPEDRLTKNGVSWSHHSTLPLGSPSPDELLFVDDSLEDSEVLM
Description: FACS, CHO-muMerTK OE cells, 10 ug/ml. Put shortly: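 Cells were plated at 100,000 per well, exposed to antibody (10 μg/ml) on ice for 60 minutes, washed, and labelled with a PE anti-human IgG secondary in Fc block for 30 minutes on ice. Mean fluorescence intensity was then measured by flow cytometry.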

B1: MTK-230 (antibody, human IgG1, V domains shown)
VH: EVQLQQSGPELVKPGASVRIPCKASGYTFSDYNMDWVKQSHGKSLEWIGNINPNIGGTIYSQKFKGKATLTVDKSSSTAYMELRSLTSEDTAVYYCARGDYGFASWGQGTLVTVSA
VL: DIVLTQSPASLTVSLGQRATISCRASRSVSTSGYSYMHWYQQKPGQPPKLLIYLASNLESGVPARFSGSRSGTDFTLNIHPVEEEDAATYYCQHSREYPFTFGSGTKLEIK
For the molecule B1, in test [1], the binding result is recorded as “no binding”. In test [2], this molecule had an MFI of 12400 MFI.
